Assay results as given in patent US8772452B2, “Calcium-binding photoprotein” (JNC Corporation, priority 2009, dated 2014).

What was measured:
[1] = Luminescence pattern triggered by addition of calcium (luminescence plate reader Centro LB960); type: biochemical
Procedure: The luminescence activity of the recombinant clytin-ESNA of EXAMPLE 4 was measured as follows. After mixing 2-mercaptoethanol (1 μl) and substrate coelenterazine (1 μg/μl dissolved in ethanol) with 30 mM Tris-HCl (pH 7.6) containing 10 mM EDTA, the recombinant apoclytin-ESNA at each purification step was added to the mixture. The reaction was carried out on ice (4° C.) for 2 hours to regenerate recombinant clytin-ESNA. The luminescence reaction was triggered by adding a 50 mM calcium solution (100 μl/well) to 1 μl of this regenerated recombinant clytin-ESNA solution. The luminescence activity was measured for 10 seconds using a luminescence plate reader Centro LB960 (manufactured by Berthold) and expressed in terms of the maximum luminescence intensity (Imax).
In order to compare the luminescence properties between the recombinant clytin-ESNA (CLI-ESNA) obtained in EXAMPLE 5 and other holoproteins (aequorin (AQ)), clytin-I (CL-I), clytin-II (CL-II)) and obelin (Ob)), the luminescence patterns triggered by the addition of calcium were compared.
The luminescence patterns of CLI-ESNA, AQ, CL-I, CL-II and Ob were measured as follows. […] The luminescence reaction was initiated by adding 100 μl/well of a 50 mM calcium solution to this reconstitution solution. […]

[2] = Bioluminescence emission spectrum on addition of CaCl2 (JASCO FP-6500, excitation source off); type: physicochemical; settings: 0.1 ml of 50 mM CaCl2 added to 1 ml of 50 mM Tris-HCl (pH 7.6), 0.02 mg protein
Procedure: Bioluminescence emission spectra of the recombinant clytin-ESNA obtained in EXAMPLE 4, 5) were measured in a quartz cell having a 10 mm optical path under the given conditions (band width for emission/excitation: 20 nm, response: 0.5 sec, scan speed: 2000 nm/min) using a fluorescence spectrophotometer (JASCO FP-6500) with the excitation source turned off.

B1: recombinant clytin-ESNA: Holoprotein (calcium-binding photoprotein) regenerated from recombinant apoclytin-ESNA (SEQ ID NO: 2/6) and coelenterazine (protein)
chain: VKLRPNFDNPKWVNRHKFMFNFLDINGDGKITLDEIVSKASDDICAKLGATPEQTKRHQDAVEAFFKKIGMDYGKEVEFPAFVDGWKELANYDLKLWSQNKKSLIRDWGDAVFDIFDKDGSGSISLDEWKAYGRISGICPSDEDAEKTFKHCDLDNSGKLDVDEMTRQHLGFWYTLDPTSDGLYGNFVP
modifications: coelenterazine
decay pattern of the luminescence patterns ([1]; 100 μl/well of 50 mM calcium solution, measured for 10 seconds, as compared to AQ, Cl-I, Ob): rapid decay pattern | S/N ratio ([1]; compared with Cl-I, luminescence triggered by calcium): higher S/N ratio than Cl-I | bioluminescence emission maximum wavelength [2]: 470 nm
